Results on eight molecules are retold here after patent US20220089757A1 (ADAGENE PTE, published 2022).

One assay has as its target T1, human CD137L peptide 01 (human, biotinylated (position not given)).
T1 construct: Synthesized as biotinylated peptide
T1 peptide: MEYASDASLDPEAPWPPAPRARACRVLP
The assay is described as follows: ELISA, IgG on CD137L peptide 01.

The target in another assay is T2, human CD137L peptide 02 (human, biotinylated (position not given)).
T2 construct: Synthesized as biotinylated peptide; identical to peptide 01 except that it lacks the C-terminal 5 residues
T2 peptide: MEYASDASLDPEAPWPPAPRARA
The assay is described as follows: ELISA, IgG on CD137L peptide 02.

A further assay addresses T3, full length human CD137L (human, UniProt P41273 1-254).
T3 construct: also called CD137 ligand; human CD137 ligand
In words: immunofluorescence microscopy on fixed and permeabilized CHO-S-CD137L cells. The procedure:
FIGS. 3A-3C show immunofluorescence staining of TY23557, TY23561, the Reference-1 and isotype control antibodies at the indicated concentrations. The positive control CHO-S-CD137L cell line and the negative control CHO-S cells were washed, fixed and permabilized in a similar fashion as in immunohistochemistry (IHC), followed by analysis through fluorescence microscopy. (FIG. 3A) CHO-S-CD137L cells were stained with TY23557 or TY23561 (0.4 nM or 40 nM). (FIG. 3B) CHO-S-CD137L cells were stained with Reference-1 (6.66 nM) or negative isotype control (40 nM). (FIG. 3C) CHO-S cells were stained with TY23557 (40 nM), TY23561 (40 nM), negative isotype control (40 nM) or Reference-1 (6.66 nM).
The specificity of the antibodies were further confirmed with immunofluorescence analysis. To that end, CHO-S and CHO-S-CD137L cells were cultured on cover slides overnight. Cells were washed with DPBS followed by fixing and permeabilizing with 2% (v/v) paraformaldehyde and 0.1% Triton X 100. Then the cells were incubated with TY23557, TY23561, negative isotype control and Reference-1 (positive control) for one hour at room temperature. After washing by 0.05% PBST, PE Goat anti-mouse IgG Fc were added and staining for one hour at room temperature. The samples were analyzed with fluorescent microscopy.

Changes are numbered by the printed parent chain.

B1: TY23556 (antibody, V domains shown)
VH: EVQLVESGGGLVQPGGSLRLSCAASGYSITSGHYWGWIRQAPGKGLEWIGEIYHSGSTYYSPSLKSRVTISRDNSKNTLYLQLNSLRAEDTAVYYCTRGRYGLDYWGQGTLVTVSS
VL: DIQLTQSPSSLSASVGDRVTITCSASSSVGYVQWYQQKPGKAPKLLIYDASNRATGIPSRFSGSGSGTDFTLTISSLQPEDFATYYCQQYGSAPITFGQGTKVEIKR
notes: Tested as IgG with Fc from mouse IgG2a, expressed in mammalian cells
As for B1, the figures for the EC50 with human CD137L peptide 01 and with human CD137L peptide 02 were 0.66 nM and 0.48 nM, respectively.

B2: TY23559 (antibody, V domains shown)
VH: B1 VH with T30S, G36A
VL: B1 VL with G30S, G91S, S92T, A93N, I95L
notes: as for B1
On to B2, for which the results for the half-maximal effective concentration (EC50) with human CD137L peptide 01 and in the assay with human CD137L peptide 02 were 1.03 nM and 0.65 nM, respectively.

B3: TY23557 (antibody, V domains shown)
VH: EVQLVESGGGLVQPGGSLRLSCAASGFTFTGYGIHWVRQAPGKGLEWVSAISGSGGSTYYADSVKGRFTISRDNSKNTLYLQLNSLRAEDTAVYYCARGAYYGGSYYFDYWGQGTLVTVSS
VL: DIQLTQSPSSLSASVGDRVTITCRASESITSSYLAWYQQKPGKAPKLLIYDASSLESGVPSRFSGSGSGTDFTLTISSLQPEDFATYYCFQGSHYPPTFGQGTKVEIKR
notes: as for B1
In the case of B3, the 50% effective concentration (EC50) with human CD137L peptide 01 is 10.1 nM; with human CD137L peptide 02, 6.77 nM. Besides, the binding result with full length human CD137L is “binds”.

B4: TY23558 (antibody, V domains shown)
VH: EVQLVESGGGLVQPGGSLRLSCAASGYSISSGHYWSWIRQAPGKGLEWIGEIYHSGSTYYSPSLKSRVTISRDNSKNTLYLQLNSLRAEDTAVYYCAREGSDSYGGPDPFDIWGQGTLVTVSS
VL: DIQLTQSPSSLSASVGDRVTITCRARSTVSFPYLHWYQQKPGKAPKLLIYDASNLETGVPSRFSGSGSGTDFTLTISSLQPEDFATYYCQQSLEDPFTFGQGTKVEIKR
notes: Tested as IgG with Fc from mouse IgG2a, expressed in mammalian cells; also called TV23558
As for B4, the concentration for a half-maximal effect (EC50) with human CD137L peptide 01 was found to be 3.84 nM; in the assay with human CD137L peptide 02 it was 1.51 nM.

B5: TY23561 (antibody, V domains shown)
VH: EVQLVESGGGLVQPGGSLRLSCAASGFSLSTSGVGVSWIRQAPGKGLEWLALIDWAGDKYYSPSLKSRLTISRDNSKNTLYLQLNSLRAEDTAVYYCARYGYSSYALDYWGQGTLVTVSS
VL: DIQLTQSPSSLSASVGDRVTITCRASQSVRGSYLAWYQQKPGKAPKLLIYAASTLQSGVPSRFSGSGSGTDFTLTISSLQPEDFATYYCQQYSSLWTFGQGTKVEIKR
notes: as for B1
As for B5, the values for the concentration giving a half-maximal response (EC50) with human CD137L peptide 01 and with human CD137L peptide 02 were 166 nM and 50 nM, respectively.

B6: TY23555 (antibody, V domains shown)
VH: EVQLVESGGGLVQPGGSLRLSCAASGYSISSGHYWAWIRQAPGKGLEWVSVISGSGGSTYYADSVKGRFTISRDNSKNTLYLQLNSLRAEDTAVYYCARYRSGAFDYWGQGTLVTVSS
VL: DIQLTQSPSSLSASVGDRVTITCRASQSISRWLAWYQQKPGKAPKLLIYAASSLQSGVPSRFSGSGSGTDFTLTISSLQPEDFATYYCQQAYSIWTFGQGTKVEIKR
notes: as for B1
For B6, the 50% effective concentration (EC50) with human CD137L peptide 01 stood at 28.5 nM; with human CD137L peptide 02, 12.3 nM.

B7: TY23554 (antibody, V domains shown)
VH: EVQLVESGGGLVQPGGSLRLSCAASGYSITSGYYWAWIRQAPGKGLEWIGIINPNRGSTKYAQKFQGRVTISRDNSKNTLYLQLNSLRAEDTAVYYCARDGWALSGGYYYYYGLDVWGQGTLVTVSS
VL: DIQLTQSPSSLSASVGDRVTITCRASQDISSDLAWYQQKPGKAPKLLIYDASNLETGVPSRFSGSGSGTDFTLTISSLQPEDFATYYCQQYDAWPSTFGQGTKVEIKR
notes: as for B1
Consider B7, for which the EC50 in the assay with human CD137L peptide 01 turned out to be 3.13 nM; with human CD137L peptide 02, 1.59 nM.

B8: TY23562 (antibody, V domains shown)
VH: EVQLVESGGGLVQPGGSLRLSCAASGYSISSGYHWDWIRQAPGKGLEWIGRINPNRGSTKYAQKFQGRVTISRDNSKNTLYLQLNSLRAEDTAVYYCAREFGAYWGQGTLVTVSS
VL: DIQLTQSPSSLSASVGDRVTITCRASQSVDFVGKSFLDWYQQKPGKAPKLLIYDASNLETGVPSRFSGSGSGTDFTLTISSLQPEDFATYYCQQRASWPLTFGQGTKVEIKR
notes: as for B1
Consider B8, for which the EC50 with human CD137L peptide 01 was found to be 2.04 nM; in the assay with human CD137L peptide 02, 0.74 nM.
